Measured values reported in patent US20220220216A1 (Kyowa Kirin, published 2022).
Read-outs that look alike come from different tables or passages of the source.

How the values were obtained:
human CD40 on cells [1] = biological target: T1, human CD40 on cells (human, UniProt P25942 21-277); assay: FCM on Ramos cells (CD40-positive, GPC3-negative), antibody at 0.01-10 µg/mL, APC anti-human IgG Fc, MFI [A]
T1 construct: Endogenous CD40 of Ramos cells (and of monocyte-derived dendritic cells); also called CD40 on Ramos cells; CD40 on human induced dendritic cells
Protocol: (§1) Ramos cells were suspended in SB at a cell density of 1×10⁶ cells/mL, and the suspension was dispensed in a 96-well round bottom plate (manufactured by Falcon, Inc.) at 100 μL/well.
(§2) After further centrifugation (2000 rpm, 4° C., 2 minutes), the supernatant was removed, and the pellet was washed 3 times with 200 μL/well of SB, and then, APC-conjugated AffiniPure F(ab′)₂ Goat Anti-Human IgG, Fcγ (manufactured by Jackson ImmunoResearch Laboratories, Inc.) diluted 100 times was added thereto at 100 μL/well, and the plate was incubated at ice temperature for 30 minutes. After washing twice with SB, the cells were suspended in 100 μL/well of SB, and the fluorescence intensity of each cell was measured using a flow cytometer FACSCANTO II (manufactured by Becton, Dickinson and Company).

[2] = biological target: T2, human GPC3 on a cell membrane (human, UniProt P51654 25-554); assay: FCM on HepG2 cells (GPC3-positive), APC anti-human IgG Fc, MFI [B]
T2 construct: HepG2 and HuH-7 carry the endogenous protein; also called hGPC3; GPC3 on HepG2 cells, HuH-7 cells, MC-38/hGPC3 cells and Expi293F cells transiently expressing human GPC3
T2 sequence (P51654 25-554 limits assumed): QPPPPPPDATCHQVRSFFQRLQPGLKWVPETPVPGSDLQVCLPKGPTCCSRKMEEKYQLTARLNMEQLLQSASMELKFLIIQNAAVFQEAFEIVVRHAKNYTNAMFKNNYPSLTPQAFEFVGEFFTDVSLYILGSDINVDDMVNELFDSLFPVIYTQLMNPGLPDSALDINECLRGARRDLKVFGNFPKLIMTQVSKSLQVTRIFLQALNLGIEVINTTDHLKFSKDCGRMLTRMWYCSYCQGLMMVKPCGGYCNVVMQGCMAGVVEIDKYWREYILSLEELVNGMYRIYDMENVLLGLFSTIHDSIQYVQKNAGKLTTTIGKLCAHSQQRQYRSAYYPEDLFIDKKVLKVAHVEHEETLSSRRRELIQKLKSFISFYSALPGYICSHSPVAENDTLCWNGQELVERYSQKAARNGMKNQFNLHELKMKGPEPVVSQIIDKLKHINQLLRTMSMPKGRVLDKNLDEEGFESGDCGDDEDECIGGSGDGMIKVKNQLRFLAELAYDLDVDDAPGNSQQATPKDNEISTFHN

human CD40-GST protein = biological target: T3, human CD40-GST protein (human, UniProt P25942 21-193); assay: phage ELISA, CD40-GST immobilised on the plate
T3 construct: not shown: GST region of the N5 vector
Protocol: (§3) In the ELISA, MAXISORP (manufactured by NUNC, Inc.) in which the human or monkey CD40-GST in Example 1 was immobilized on each well and a portion to which the human or monkey CD40-GST is not bound was blocked using SuperBlock Blockig Buffer (manufactured by Thermo Fisher, Inc.) was used. To each well, each phage clone was added and reacted at room temperature for 30 minutes, and thereafter, each well was washed 3 times with PBS-T.
(§4) Subsequently, an anti-M13 antibody (manufactured by GE Healthcare, Inc.) labeled with horseradish peroxidase was diluted 5000 times with PBS-T containing 10% Block Ace (manufactured by Dainippon Pharmaceutical Co., Ltd.), and the resultant was added in an amount of 50 μL to each well, and incubated at room temperature for 30 minutes. After the microplate was washed four times with PBS-T, a TMB chromogenic substrate solution (manufactured by DAKO, Inc.) was added in an amount of 50 μL to each well and incubated at room temperature for 10 minutes.

monkey CD40-GST protein = biological target: T4, monkey CD40-GST protein (monkey, UniProt P25942 21-193 (human entry)); assay: phage ELISA, CD40-GST immobilised on the plate
T4 construct: it may begin with a signal peptide; not shown: GST region of the N5 vector
T4 chain: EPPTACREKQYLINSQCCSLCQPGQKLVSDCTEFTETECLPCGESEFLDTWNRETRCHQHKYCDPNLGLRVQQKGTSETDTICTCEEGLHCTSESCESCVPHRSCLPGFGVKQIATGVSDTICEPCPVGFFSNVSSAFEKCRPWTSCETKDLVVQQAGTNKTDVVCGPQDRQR
Protocol: as §3, §4

human CD40 on cells [3] = biological target: T1, human CD40 on cells; assay: FCM on Ramos cells (CD40-positive), MFI [B]
Protocol: The reactivity of each of various bispecific antibodies produced in Example 16 with HepG2 cells and Ramos cells was evaluated by FCM in the same manner as in Example 7.

[4] = biological target: T5, Human GPC3-His (manufactured by ACROBiosystems, Inc.) (human, UniProt P51654 25-559); assay: SPR (Biacore T100), antibody captured on anti-human IgG, antigen as analyte, single cycle kinetics
T5 construct: Bought protein; also called hGPC3-His; not shown: His tag
T5 sequence (P51654 25-559 limits assumed): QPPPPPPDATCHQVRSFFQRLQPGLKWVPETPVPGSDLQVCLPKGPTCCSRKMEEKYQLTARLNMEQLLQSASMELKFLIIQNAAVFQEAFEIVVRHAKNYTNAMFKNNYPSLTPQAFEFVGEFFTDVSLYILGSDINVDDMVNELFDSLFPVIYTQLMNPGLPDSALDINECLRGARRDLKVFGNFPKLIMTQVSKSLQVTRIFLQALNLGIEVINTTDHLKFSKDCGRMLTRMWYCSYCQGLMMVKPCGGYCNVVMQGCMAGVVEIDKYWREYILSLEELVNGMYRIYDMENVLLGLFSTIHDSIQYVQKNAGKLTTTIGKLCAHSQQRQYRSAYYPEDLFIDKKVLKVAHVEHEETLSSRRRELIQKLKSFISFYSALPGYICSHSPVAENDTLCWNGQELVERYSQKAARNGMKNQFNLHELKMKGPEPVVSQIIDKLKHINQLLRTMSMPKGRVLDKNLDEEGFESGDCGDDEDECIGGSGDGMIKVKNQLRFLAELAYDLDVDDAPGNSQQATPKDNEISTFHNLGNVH
Protocol: (§5) An anti-human IgG antibody was immobilized on a CMS sensor chip (manufactured by GE Healthcare, Inc.) using Human Antibody Capture Kit (manufactured by GE Healthcare, Inc.) according to the package insert. A test antibody prepared at 2 μg/mL was added to a flow cell for 10 seconds at a flow rate of 10 μL/min.
(§6) The measurement was performed by a single cycle kinetics method.
(§7) The obtained sensorgram was analyzed using Bia Evaluation Software (manufactured by GE Healthcare, Inc.), and the kinetic constant of each antibody was calculated.

[5] = biological target: T5, Human GPC3-His (manufactured by …); assay: as above; remark: listed apart in the source
Protocol: as §5, §6

[6] = biological target: T5, Human GPC3-His (manufactured by …); assay: SPR (Biacore T100), antibody captured on anti-human IgG, antigen as analyte, single cycle kinetics; second run (Table 9)
Protocol: as §5, §6

[7] = biological target: T5, Human GPC3-His (manufactured by …); assay: SPR (Biacore T100), antibody captured on anti-human IgG, antigen as analyte, single cycle kinetics; first run (Table 8)
Protocol: as §5, §6, §7

human CD40 on cells [8] = biological target: T1, human CD40 on cells; assay: FCM on Ramos cells (CD40-positive, GPC3-negative)
Protocol: as §1, §2

human CD40 on cells [9] = biological target: T1, human CD40 on cells; assay: FCM on Ramos cells (CD40-positive, GPC3-negative), APC anti-human IgG Fc, MFI [A]
Protocol: as §1, §2

B1: anti-CD40 monoclonal antibody R1090S55A (antibody, V domains shown)
VH: EVQLVQSGAEVKKPGESLKISCKGSGYSFIIYWIGWVRQMPGKGLEWMGIIYPNDADTRYSPSFQGQVTISADKSISTAYLQWSSLKASDTAMYYCVRLGTRDWFDPWGQGTLVTVSS
VL: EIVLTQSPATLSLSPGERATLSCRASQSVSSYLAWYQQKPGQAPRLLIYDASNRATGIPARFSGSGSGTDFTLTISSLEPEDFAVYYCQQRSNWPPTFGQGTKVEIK
Q: Does B1 bind (human CD40 on cells [1])?
A: Result: binds

Q: Does B1 bind [2]?
A: Result: no binding (tested: 10 µg/mL)

B2: R1090S55A monoclonal phage clone (scFv displayed on M13 phage) (scFv, V domains shown)
VH: EVQLVQSGAEVKKPGESLKISCKGSGYSFIIYWIGWVRQMPGKGLEWMGIIYPNDADTRYSPSFQGQVTISADKSISTAYLQWSSLKASDTAMYYCVRLGTRDWFDPWGQGTLVTVSS
VL: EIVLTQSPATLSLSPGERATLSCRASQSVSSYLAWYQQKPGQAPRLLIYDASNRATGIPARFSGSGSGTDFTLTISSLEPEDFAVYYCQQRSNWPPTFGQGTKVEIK
notes: Form in the screening ELISA: scFv on phage (phagemid pCANTAB 5E); also called R1090S55A phage clone
Q: Does B2 bind (human CD40-GST protein)?
A: Result: binds

Q: Does B2 bind (monkey CD40-GST protein)?
A: Result: binds

B3: conventional anti-GPC3 antibody YP7 (IgG4PE R409K) (antibody, V domains shown)
VH: EVQLVETGGGMVQPEGSLKLSCAASGFTFNKNAMNWVRQAPGKGLEWVARIRNKTNNYATYYADSVKARFTISRDDSQSMLYLQMNNLKIEDTAMYYCVAGNSFAYWGQGTLVTVSA
VL: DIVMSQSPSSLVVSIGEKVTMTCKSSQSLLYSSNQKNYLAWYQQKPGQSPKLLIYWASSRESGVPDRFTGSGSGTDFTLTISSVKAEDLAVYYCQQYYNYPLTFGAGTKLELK
notes: Variable regions from WO 2013/181543; not shown: constant region of 'a κ chain'
Q: Does B3 bind (human CD40 on cells [3])?
A: Result: no binding (tested: 10 µg/mL)

Q: What about the Kd [4] of the same binder?
A: The Kd was 0.861 nM.

Q: And the koff [4]?
A: The koff was 0.000186 s⁻¹.

Q: What about the kon [4] of the same binder?
A: Its kon is 217000 M⁻¹ s⁻¹.

B4: anti-CD40 monoclonal antibody 21.4.1 (CP-870,893) (antibody, V domains shown)
VH: not shown
VL: DIQMTQSPSSVSASVGDRVTITCRASQGIYSWLAWYQQKPGKAPNLLIYTASTLQSGVPSRFSGSGSGTDFTLTISSLQPEDFATYYCQQANIFPLTFGGGTKVEIK
notes: Constant region of human IgG2 (N5KG2 vector); positive control agonistic anti-CD40 antibody
Q: Does B4 bind [2]?
A: Result: no binding (tested: 10 µg/mL)

B5: conventional anti-GPC3 antibody GC33 (IgG4PE R409K) (antibody, V domains shown)
VH: QVQLQQSGAELVRPGASVKLSCKASGYTFTDYEMHWVKQTPVHGLKWIGALDPKTGDTAYSQKFKGKATLTADKSSSTAYMELRSLTSEDSAVYYCTRFYSYTYWGQGTLVTVSA
VL: DVVMTQTPLSLPVSLGDQASISCRSSQSLVHSNGNTYLHWYLQKPGQSPKLLIYKVSNRFSGVPDRFSGSGSGTDFTLKISRVEAEDLGVYFCSQNTHVPPTFGSGTKLEIK
notes: Variable regions from WO 2006/006693; not shown: constant region of 'a κ chain'
Q: Which Kd [5] does the source give for B5 here?
A: The Kd was 1.46 nM.

Q: What about the koff [5] of the same binder?
A: The koff was 0.000299 s⁻¹.

Q: What about the kon [5] of the same binder?
A: The kon was 205000 M⁻¹ s⁻¹.

Q: Does B5 bind (human CD40 on cells [3])?
A: Result: no binding (tested: 10 µg/mL)

Q: What about the Kd [4] of the same binder?
A: The Kd was 2.6 nM.

Q: What about the koff [4] of the same binder?
A: Its koff is 0.000378 s⁻¹.

Q: And the kon [4]?
A: The kon was 145000 M⁻¹ s⁻¹.

B6: conventional anti-GPC3 antibody HN3 (IgG4PE R409K) (antibody, V domains shown)
VH: QVQLVQSGGGLVQPGGSLRLSCAASYFDFDSYEMSWVRQAPGKGLEWIGSIYHSGSTYYNPSLKSRVTISRDNSKNTLYLQMNTLRAEDTATYYCARVNMDRFDYWGQGTLVTVSS
notes: Variable region from WO 2012/145469
Q: Which results are given for B6?
A: kon [6]: > 1e+07 M⁻¹ s⁻¹; Kd [5]: 24.4 nM; binding result (human CD40 on cells [3]): no binding (tested: 10 µg/mL); kon [7]: > 1e+07 M⁻¹ s⁻¹; Kd [4]: 13.2 nM

B7: anti-GPC3 antibody GPngs18 (antibody, human IgG4 S228P, kappa, V domains shown)
VH: EVQLVESGGGLVQPGGSLRLSCAASGFTFSSYSMNWVRQAPGKGLEWVSYIRSDSRTIKYADSVKGRFTISRDNAKNSLFLQMNSLRDEDTAVYYCARWEWELDAFDIWGQGTMVTVSS
VL: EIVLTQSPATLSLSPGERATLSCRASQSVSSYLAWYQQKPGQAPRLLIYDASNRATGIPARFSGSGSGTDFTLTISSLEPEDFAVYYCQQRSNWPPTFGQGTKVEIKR
notes: IgG4PE R409K; light chain with L6 as VL
Q: Which results are given for B7?
A: binding result (human CD40 on cells [8]): no binding (tested: 10 µg/mL); Kd [5]: 0.39 nM; koff [5]: 0.000764 s⁻¹; kon [5]: 1.96e+06 M⁻¹ s⁻¹

B8: anti-GPC3 antibody GPngs62 (antibody, human IgG4 S228P, kappa, V domains shown)
VH: EVQLVESGGGLVQPGGSLRLSCAASGFTFSSYARSWVRQAPGKGLEWVSAISGGGGRTYYADSVKGRFTISRDNSQNTLYLQMNSLRAEDTAVYYCAKNYYGSGSASYWYFDLWGRGTLVTVSS
VL: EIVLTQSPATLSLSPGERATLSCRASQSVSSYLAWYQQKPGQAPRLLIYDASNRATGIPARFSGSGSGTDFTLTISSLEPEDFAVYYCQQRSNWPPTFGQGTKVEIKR
notes: as for B7
Q: Does B8 bind (human CD40 on cells [8])?
A: Result: no binding (tested: 10 µg/mL)

Q: What about the Kd [5] of the same binder?
A: The Kd was 5.36 nM.

Q: And the koff [5]?
A: Its koff is 0.031 s⁻¹.

Q: What about the kon [5] of the same binder?
A: The kon was 5.74e+06 M⁻¹ s⁻¹.

B9: anti-GPC3 antibody GpA6062 (antibody, human IgG4 S228P, kappa, V domains shown)
VH: EVQLVETGGGLVQPGGSLRLSCAASGFSFSSYAMNWVRQAPGKGLEWVSYITSGGSSRYYADSVKGRFTISRDNAKNSLYLQMNSLRDEDTAVYYCARGTYYYGSGNYFLFDYWGQGTTVTVSS
VL: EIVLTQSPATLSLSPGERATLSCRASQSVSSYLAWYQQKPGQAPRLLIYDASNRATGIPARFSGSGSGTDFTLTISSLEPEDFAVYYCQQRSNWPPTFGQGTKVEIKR
notes: as for B7
Q: How did the Kd [5] turn out when B9 was run?
A: Its Kd is 6.33 nM.

Q: What about the koff [5] of the same binder?
A: Its koff is 0.00175 s⁻¹.

Q: What about the kon [5] of the same binder?
A: The kon was 276000 M⁻¹ s⁻¹.

Q: Does B9 bind (human CD40 on cells [9])?
A: Result: no binding (tested: 10 µg/mL)

B10: anti-GPC3 antibody GpA6014 (antibody, human IgG4 S228P, kappa, V domains shown)
VH: QMQLVQSGGGLVQPGGSLRLSCAASGFSFSSYAMNWVRQAPGKGLEWVSYITSGGSSRYYADSVKGRFTISRDNAKNSLYLQMNSLRDEDTAVYYCARGTYYYGSGNYFLFDHWGQGTMVTVSS
VL: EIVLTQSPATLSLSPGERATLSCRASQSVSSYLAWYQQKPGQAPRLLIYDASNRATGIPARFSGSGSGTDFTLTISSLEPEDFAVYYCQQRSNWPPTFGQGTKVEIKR
notes: as for B7
Q: Which results are given for B10?
A: Kd [5]: 6.35 nM; koff [5]: 0.00189 s⁻¹; kon [5]: 297000 M⁻¹ s⁻¹; binding result (human CD40 on cells [9]): no binding (tested: 10 µg/mL)

B11: anti-GPC3 antibody GpA6005 (antibody, human IgG4 S228P, kappa, V domains shown)
VH: QVQLVESGGGLVQPGGSLRLSCAASGFTFSSYSMNWVRQAPGKGLEWVSYIKSSGSSTYYADSVKGRFTISRDNAKNSLNLQMNSLRDEDTAVYYCARGTYYYGSGNFFLFDYWGQGTLVTVSS
VL: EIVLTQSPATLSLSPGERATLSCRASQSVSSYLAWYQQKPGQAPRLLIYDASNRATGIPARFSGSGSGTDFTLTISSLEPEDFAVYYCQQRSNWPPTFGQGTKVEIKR
notes: as for B7
Q: Which results are given for B11?
A: Kd [5]: 0.762 nM; koff [5]: 0.000347 s⁻¹; kon [5]: 456000 M⁻¹ s⁻¹; binding result (human CD40 on cells [9]): no binding (tested: 10 µg/mL)
